Measurements from patent US20160215041A1.

Key:
[1] = target: Anti-P. aeruginosa O6ad scFv, c-myc- and 6× His-tagged (human); experiment: ELISA: anti-O6ad scFv coated, two-fold dilutions of anti-tag IgG, goat anti-mouse IgG-HRP
[2] = target: Anti-P. aeruginosa O6ad Fab, c-myc- and 6× His-tagged (human); experiment: ELISA: anti-O6ad Fab coated, two-fold dilutions of anti-tag IgG, goat anti-mouse IgG-HRP
[3] = target: Anti-P. aeruginosa O6ad scFv, c-myc- and 6× His-tagged (human); experiment: ELISA, rAb coated, anti-tag IgG titrated (FIG. 7)
[4] = target: Anti-P. aeruginosa O6ad Fab, c-myc- and 6× His-tagged (human); experiment: ELISA, rAb coated, anti-tag IgG titrated (FIG. 7)
[5] = target: Anti-P. aeruginosa O6ad scFv, c-myc- and 6× His-tagged (human); experiment: cell-based or functional assay
[6] = target: Anti-P. aeruginosa O6ad Fab, c-myc- and 6× His-tagged (human); experiment: cell-based or functional assay
[7] = target: Human complement C1q (human) (UniProt P02745); experiment: C1q deposition ELISA, anti-tag IgG alone at 66.67 nM
UniProt P02745, sequence (P02745 23-245 limits assumed, chain 1 of 3): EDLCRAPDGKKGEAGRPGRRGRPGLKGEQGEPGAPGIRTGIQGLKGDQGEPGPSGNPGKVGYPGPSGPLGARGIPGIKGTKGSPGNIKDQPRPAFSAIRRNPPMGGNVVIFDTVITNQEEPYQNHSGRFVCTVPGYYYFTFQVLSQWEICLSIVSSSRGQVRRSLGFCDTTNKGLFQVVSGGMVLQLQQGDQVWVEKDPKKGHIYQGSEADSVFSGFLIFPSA
UniProt P02745, sequence (P02746 28-253 limits assumed, chain 2 of 3, further chain): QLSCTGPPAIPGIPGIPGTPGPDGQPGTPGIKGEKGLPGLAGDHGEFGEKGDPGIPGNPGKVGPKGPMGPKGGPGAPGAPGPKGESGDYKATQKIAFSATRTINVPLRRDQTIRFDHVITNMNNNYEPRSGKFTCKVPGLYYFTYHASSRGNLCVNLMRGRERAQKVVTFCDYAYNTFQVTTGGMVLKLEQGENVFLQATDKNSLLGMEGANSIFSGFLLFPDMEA
UniProt P02745, sequence (P02747 29-245 limits assumed, chain 3 of 3, further chain): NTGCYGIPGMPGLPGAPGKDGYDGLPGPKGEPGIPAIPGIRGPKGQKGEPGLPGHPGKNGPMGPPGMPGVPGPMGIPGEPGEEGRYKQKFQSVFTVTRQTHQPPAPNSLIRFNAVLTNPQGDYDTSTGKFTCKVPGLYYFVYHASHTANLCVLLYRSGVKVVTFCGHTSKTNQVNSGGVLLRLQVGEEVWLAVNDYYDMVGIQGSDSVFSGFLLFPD

Anti-Penta-His IgG1 murine mAb (QIAgen) (antibody)
EC50 (read off the curve) [1]: 1 nM | EC50 (read off the curve) [2]: 1 nM | fold binding relative to 9E10 [3]: < 10 fold | fold binding relative to 9E10 [4]: < 10 fold | % phagocytosed bacteria (P. aeruginosa O6ad, J774.1A) [5]: 42% | fold increase of bacterial uptake over the control without antibodies, at 13.09 nM anti-tag IgG [5]: 10.6 fold | fold phagocytosis relative to scFv-9E10 [5]: 2 fold | % phagocytosed bacteria (P. aeruginosa O6ad, J774.1A) [6]: 27% | fold increase of bacterial uptake over the control without antibodies, at 13.09 nM anti-tag IgG [6]: 3.5 fold | fold phagocytosis relative to Fab-9E10 [6]: > 1.2 fold

Murine mAb 9E10 (anti-c-myc IgG1) from hybridoma 1-9E10.2 (ATCC CRL-1729) (antibody)
fold C1q deposition relative to Penta-His [7]: 1.4 fold | % phagocytosed bacteria (P. aeruginosa O6ad, J774.1A) [5]: 24.8% | fold increase of bacterial uptake over the control without antibodies, at 13.09 nM anti-tag IgG [5]: 4.6 fold | % phagocytosed bacteria (P. aeruginosa O6ad, J774.1A) [6]: 18.8% | fold increase of bacterial uptake over the control without antibodies, at 13.09 nM anti-tag IgG [6]: 3.5 fold
